Experimental data taken from US11459578B2, “Carbon fixation systems in plants and algae” (NMC, INC., priority 2014, dated 2022).

B1: HLA3: Chlamydomonas plasma membrane-localized and ATP-dependent bicarbonate transporter, expressed in transgenic plants (protein, listed as Chlamydomonas reinhardtii)
chain: MLPGLGVILLVLPMQYYFGYKIVQIKLQNAKHVALRSAIMQEVLPAIKLVKYYAWEQFFENQISKVRREEIRLNFWNCVMKVINVACVFCVPPMTAFVIFTTYEFQRARLVSSVAFTTLSLFNILRFPLVVLPKALRAVSEANASLQRLEAYLLEEVPSGTAAVKTPKNAPPGAVIENGVFHHPSNPNWHLHVPKFEVKPGQVVAVVGRIAAGKSSLVQAILGNMVKEHGSFNVGGRISYVPQNPWLQNLSLRDNVLFGEQFDENKYTDVIESCALTLDLQILSNGDQSKAGIRGVNFSGGQRQRVNLARCAYADADLVLLDNALSAVDHHTAHHIFDKCIKGLFSDKAVVLVTHQIEFMPRCDNVAIMDEGRCLYFGKWNEEAQHLLGKLLPITHLLHAAGSQEAPPAPKKKAEDKAGPQKSQSLQLTLAPTSIGKPTEKPKDVQKLTAYQAALIYTWYGNLFLVGVCFFFFLAAQCSRQISDFWVRWWVNDEYKKFPVKGEQDSAATTFYCLIYLLLVGLFYIFMIFRGATFLWWVLKSSETIRRKALHNVLNAPMGFFLVTPVGDLLLNFTKDQDIMDENLPDAVHFMGIYGLILLATTITVSVTINFFAAFTGALIIMTLIMLSIYLPAATALKKARAVSGGMLVGLVAEVLEGLGVVQAFNKQEYFIEEAARRTNITNSAVFNAEALNLWLAFWCDFIGACLVGVVSAFAVGMAKDLGGATVGLAFSNIIQMLVFYTWVVRFISESISLFNSVEGMAYLADYVPHDGVFYDQRQKDGVAKQIVLPDGNIVPAASKVQVVVDDAALARWPATGNIRFEDVWMQYRLDAPWALKGVTFKINDGEKVGAVGRTGSGKSTTLLALYRMFELGKGRILVDGVDIATLSLKRLRTGLSIIPQEPVMFTGTVRSNLDPFGEFKDDAILWEVLKKVGLEDQAQHAGGLDGQVDGTGGKAWSLGQMQLVCLARAALRAVPILCLDEATAAMDPHTEAIVQQTIKKVFDDRTTITIAHRLDTIIESDKIIVMEQGSLMEYESPSKLLANRDSMFSKLVDKTGPAAAAALRKMAEDFWSTRSAQGRNQ
B2: hCAVA: human α-carbonic anhydrase isoenzyme VA (protein, UniProt P35218 39-305, looked up)
Carbonic anhydrase 5A, …: CAWQTSNNTLHPLWTVPVSVPGGTRQSPINIQWRDSVYDPQLKPLRVSYEAASCLYIWNTGYLFQVEFDDATEASGISGGPLENHYRLKQFHFHWGAVNEGGSEHTVDGHAYPAELHLVHWNSVKYQNYKEAVVGENGLAVIGVFLKLGAHHQTLQRLVDILPEIKHKDARAAMRPFDPSTLLPTCWDYWTYAGSLTTPPLTESVTWIIQKEPVEVAPSQLSAFRTLLFSALGEEEKMMVNNYRPLQPLMNRKVWASFQATNEGTRS
B3: hCAVB: human α-carbonic anhydrase isoenzyme VB (protein, UniProt Q9Y2D0 34-317, looked up)
Carbonic anhydrase 5B, …: CSLYTCTYKTRNRALHPLWESVDLVPGGDRQSPINIRWRDSVYDPGLKPLTISYDPATCLHVWNNGYSFLVEFEDSTDKSVIKGGPLEHNYRLKQFHFHWGAIDAWGSEHTVDSKCFPAELHLVHWNAVRFENFEDAALEENGLAVIGVFLKLGKHHKELQKLVDTLPSIKHKDALVEFGSFDPSCLMPTCPDYWTYSGSLTTPPLSESVTWIIKKQPVEVDHDQLEQFRTLLFTSEGEKEKRMVDNFRPLQPLMNRTVRSSFRHDYVLNVQAKPKPATSQATP
B4: hCAVI: human α-carbonic anhydrase isoenzyme VI (protein, UniProt P23280 18-308, looked up)
Carbonic anhydrase 6: QHVSDWTYSEGALDEAHWPQHYPACGGQRQSPINLQRTKVRYNPSLKGLNMTGYETQAGEFPMVNNGHTVQISLPSTMRMTVADGTVYIAQQMHFHWGGASSEISGSEHTVDGIRHVIEIHIVHYNSKYKSYDIAQDAPDGLAVLAAFVEVKNYPENTYYSNFISHLANIKYPGQRTTLTGLDVQDMLPRNLQHYYTYHGSLTTPPCTENVHWFVLADFVKLSRTQVWKLENSLLDHRNKTIHNDYRRTQPLNHRVVESNFPNQEYTLGSEFQFYLHKIEEILDYLRRALN
B5: hCAVII: human α-carbonic anhydrase isoenzyme VII (protein, UniProt P43166 1-264, looked up)
Carbonic anhydrase 7: MTGHHGWGYGQDDGPSHWHKLYPIAQGDRQSPINIISSQAVYSPSLQPLELSYEACMSLSITNNGHSVQVDFNDSDDRTVVTGGPLEGPYRLKQFHFHWGKKHDVGSEHTVDGKSFPSELHLVHWNAKKYSTFGEAASAPDGLAVVGVFLETGDEHPSMNRLTDALYMVRFKGTKAQFSCFNPKCLLPASRHYWTYPGSLTTPPLSESVTWIVLREPICISERQMGKFRSLLFTSEDDERIHMVNNFRPPQPLKGRVVKASFRA
B6: hCAXII: human α-carbonic anhydrase isoenzyme XII (protein, UniProt O43570 25-354, looked up)
Carbonic anhydrase 12: APVNGSKWTYFGPDGENSWSKKYPSCGGLLQSPIDLHSDILQYDASLTPLEFQGYNLSANKQFLLTNNGHSVKLNLPSDMHIQGLQSRYSATQLHLHWGNPNDPHGSEHTVSGQHFAAELHIVHYNSDLYPDASTASNKSEGLAVLAVLIEMGSFNPSYDKIFSHLQHVKYKGQEAFVPGFNIEELLPERTAEYYRYRGSLTTPPCNPTVLWTVFRNPVQISQEQLLALETALYCTHMDDPSPREMINNFRQVQKFDERLVYTSFSQVQVCTAAGLSLGIILSLALAGILGICIVVVVSIWLFRRKSIKKGDNKGVIYKPATKMETEAHA
B7: hCAXIV: human α-carbonic anhydrase isoenzyme XIV (protein, UniProt Q9ULX7 16-337, looked up)
Carbonic anhydrase 14: ADGGQHWTYEGPHGQDHWPASYPECGNNAQSPIDIQTDSVTFDPDLPALQPHGYDQPGTEPLDLHNNGHTVQLSLPSTLYLGGLPRKYVAAQLHLHWGQKGSPGGSEHQINSEATFAELHIVHYDSDSYDSLSEAAERPQGLAVLGILIEVGETKNIAYEHILSHLHEVRHKDQKTSVPPFNLRELLPKQLGQYFRYNGSLTTPPCYQSVLWTVFYRRSQISMEQLEKLQGTLFSTEEEPSKLLVQNYRALQPLNQRMVFASFIQAGSSYTTGEMLSLGVGILVGCLCLLLAVYFIARKIRKKRLENRKSVVFTSAQATTEA
B8: hCAXV: α-carbonic anhydrase isoenzyme XV (protein, UniProt Q99N23 19-324, looked up)
Carbonic anhydrase 15: VDSSGTWCYDSQDPKCGPAHWKELAPACGGPTQSPINIDLRLVQRDYTLKPFIFQGYDSAPQDPWVLENDGHTVLLRVNSCQQNCPAIRGAGLPSPEYRLLQLHFHWGSPGHQGSEHSLDEKHGSMEMHMVHMNTKYQSMEDARSQPDGFAILAVLLVEEDRDNTNFSAIVSGLKNLSSPGVAVNLTSTFALASLLPSALRLLRYYRYSGSLTTPGCEPAVLWTVFENTVPIGHAQVVQFQAVLQTGPPGLHPRPLTSNFRPQQPLGGRRISASPEASVRSSVSTLPCLHLALVGLGVGLRLWQGP
B9: hCAIII: human α-carbonic anhydrase isoenzyme III (protein, UniProt P07451 2-260, looked up)
Carbonic anhydrase 3: AKEWGYASHNGPDHWHELFPNAKGENQSPVELHTKDIRHDPSLQPWSVSYDGGSAKTILNNGKTCRVVFDDTYDRSMLRGGPLPGPYRLRQFHLHWGSSDDHGSEHTVDGVKYAAELHLVHWNPKYNTFKEALKQRDGIAVIGIFLKIGHENGEFQIFLDALDKIKTKGKEAPFTKFDPSCLFPACRDYWTYQGSFTTPPCEECIVWLLLKEPMTVSSDQMAKLRSLLSSAENEPPVPLVSNWRPPQPINNRVVRASFK
B10: hCAIV: human α-carbonic anhydrase isoenzyme IV (protein, UniProt P22748 19-284, looked up)
Carbonic anhydrase 4: AESHWCYEVQAESSNYPCLVPVKWGGNCQKDRQSPINIVTTKAKVDKKLGRFFFSGYDKKQTWTVQNNGHSVMMLLENKASISGGGLPAPYQAKQLHLHWSDLPYKGSEHSLDGEHFAMEMHIVHEKEKGTSRNVKEAQDPEDEIAVLAFLVEAGTQVNEGFQPLVEALSNIPKPEMSTTMAESSLLDLLPKEEKLRHYFRYLGSLTTPTCDEKVVWTVFREPIQLHREQILAFSQKLYYDKEQTVSMKDNVRPLQQLGQRTVIKS

Tests used:
[1] = cited from earlier work
[2] = biological target: α-CAs found in mammals; conditions: inhibitor not named; cited from earlier work
[3] = system: Arabidopsis; experiment: Growth phenotypes of transgenic Arabidopsis; format: in vivo
Source text: (§1) Previously, reconstitution of a functional inorganic CCM in C3 plants to suppress photorespiration and enhance photosynthesis was proposed. In WO 2012/125737, it was hypothesized that expression of a minimum of three algal CCM proteins would be sufficient to elevate internal plastid CO2 concentrations high enough to suppress photorespiration. These three algal CCM genes included the Chlamydomonas plasma membrane-localized and ATP-dependent bicarbonate transporter, HLA3; the chloroplast envelope localized bicarbonate anion transporter, LCIA; and a chloroplast stromal-localized carbonic anhydrase (HCA-II) to accelerate conversion of bicarbonate into CO2. […] To test this hypothesis, we generated multiple independent transgenic Arabidopsis and Camelina plants expressing each CCM gene as a single gene construct, as well as a stacked 3-gene construct. The expression of each gene was controlled by the light-regulated Cab1 gene promoter.
Finally, we also grew transgenics on ammonium with sucrose which would presumably provide additional ATP via respiration. We hypothesized that growth on nitrate or ammonium with sucrose would provide additional ATP that could potentially drive HLA3 activity.

[4] = system: Camelina; experiment: Growth phenotypes and seed recovery of transgenic Camelina; format: in vivo
Source text: as §1

Row | Molecule | Km [1] [mM] | Ki [2] [nM] | other results
1 | hCAI: human α-carbonic anhydrase isoenzyme I | 4 | 250 | –
2 | hCAXIII: human α-carbonic anhydrase isoenzyme XIII | 13.8 | 16 | –
3 | B1 | – | – | growth phenotype relative to WT [3]: reduced growth phenotypes; growth in the presence of ammonium ([3]; ammonium): none of the Arabidopsis HLA3 transgenics (4 independent lines) grew; growth on ammonium with sucrose ([3]; ammonium plus sucrose): rescued; growth on nitrate ([3]; nitrate): survived; growth phenotype / viability relative to WT [4]: no viable seeds were recovered
4 | B2 | 10 | 63 | –
5 | B3 | 9.7 | 54 | –
6 | B4 | 6.9 | 11 | –
7 | B5 | 11.4 | 2.5 | –
8 | B6 | 12 | 5.7 | –
9 | B7 | 7.9 | 41 | –
10 | B8 | 14.2 | 72 | –
11 | B9 | 33.3 | 200000 | –
12 | B10 | 21.5 | 74 | –
